These results are taken from US20110294740A1.

This assay addresses Dutch/Iowa CAA double mutant Aβ40 (UniProt P05067). The experiment in a line: SPR, Aβ peptide immobilised, MBP as analyte.

A word on the Kd: it is the free concentration of one partner at which half of the binding sites on the other are occupied at equilibrium, for simple one-to-one binding. Read a high Kd as a looser complex.

myelin basic protein (purified MBP), sequence (P02686 135-304 limits assumed): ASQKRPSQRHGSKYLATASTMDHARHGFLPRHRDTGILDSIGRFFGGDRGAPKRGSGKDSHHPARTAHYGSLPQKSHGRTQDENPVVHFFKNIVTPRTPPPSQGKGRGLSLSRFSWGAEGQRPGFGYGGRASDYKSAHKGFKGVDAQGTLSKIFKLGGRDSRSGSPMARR
Dutch/Iowa CAA double mutant Aβ40, sequence (P05067 672-711, change not shown): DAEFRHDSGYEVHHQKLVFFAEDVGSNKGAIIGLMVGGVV

Consider “myelin basic protein (purified MBP) (from UniProt P02686 2-171)”, for which the dissociation constant (Kd) was determined as 16.9 nM. This counts as double-digit nanomolar.
